*1 amine or outer side, *2 acyl side, *3 side chain or, on linkers, in order; H or OH if unused. Where no end group is shown, it is not given here. Side-chain parts run from the residue outwards. [ ]: non-standard residue; d: D form. The star is where a group is joined. γGlu = O=C(O)[C@H](CCC(=O)[*:2])N[*:1]; Stearoyl = CCCCCCCCCCCCCCCCCC(=O)*; Palmitoyl = CCCCCCCCCCCCCCCC(=O)*; Aib = CC(C)(N)C(=O)O
What was measured:
Experiment in all cases: cell-based or functional assay
[1] = target: human GLP-1 receptor (human, UniProt P43220 24-463)
[2] = target: T1, human GIP receptor (human, UniProt P48546 22-466)
T1 sequence (looked up): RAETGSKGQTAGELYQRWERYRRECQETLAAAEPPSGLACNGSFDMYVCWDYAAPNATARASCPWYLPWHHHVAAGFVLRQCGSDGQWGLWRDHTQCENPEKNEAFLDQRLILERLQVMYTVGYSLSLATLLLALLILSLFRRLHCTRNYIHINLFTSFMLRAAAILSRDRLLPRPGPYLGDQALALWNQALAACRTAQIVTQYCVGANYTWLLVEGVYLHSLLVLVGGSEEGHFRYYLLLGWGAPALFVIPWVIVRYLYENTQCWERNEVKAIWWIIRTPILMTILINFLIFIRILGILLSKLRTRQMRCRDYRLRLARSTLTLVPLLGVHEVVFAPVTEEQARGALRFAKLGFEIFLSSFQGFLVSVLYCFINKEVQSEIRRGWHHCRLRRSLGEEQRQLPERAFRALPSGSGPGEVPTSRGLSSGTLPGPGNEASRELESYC

[3] = target: human glucagon receptor (human, UniProt P47871 26-477)
Chain of human glucagon receptor (P47871 26-477): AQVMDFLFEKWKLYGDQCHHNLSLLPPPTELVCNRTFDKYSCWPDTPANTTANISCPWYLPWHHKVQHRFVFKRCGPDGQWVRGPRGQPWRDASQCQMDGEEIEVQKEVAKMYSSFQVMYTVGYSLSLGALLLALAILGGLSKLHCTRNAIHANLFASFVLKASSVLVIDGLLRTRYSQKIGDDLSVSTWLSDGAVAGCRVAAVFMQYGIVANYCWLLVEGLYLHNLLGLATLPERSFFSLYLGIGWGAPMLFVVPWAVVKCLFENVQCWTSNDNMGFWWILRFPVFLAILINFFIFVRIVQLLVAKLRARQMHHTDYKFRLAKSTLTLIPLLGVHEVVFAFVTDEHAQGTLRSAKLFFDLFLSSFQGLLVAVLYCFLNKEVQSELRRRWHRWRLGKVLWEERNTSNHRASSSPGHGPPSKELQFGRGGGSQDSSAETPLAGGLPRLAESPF

B1: exendin-4 peptide analogue SEQ ID NO: 29 (peptide)
peptide: Y[Aib]EGTFTSDLSIQK([γGlu-Stearoyl])ESKAA[Aib]EFIEWLKAGGPSSGAPPPS-NH2
modifications: N-terminus assumed
SMILES: CCCCCCCCCCCCCCCCCC(=O)N[C@@H](CCC(=O)NCCCC[C@H](NC(=O)[C@H](CCC(N)=O)NC(=O)[C@@H](NC(=O)[C@H](CO)NC(=O)[C@H](CC(C)C)NC(=O)[C@H](CC(=O)O)NC(=O)[C@H](CO)NC(=O)[C@@H](NC(=O)[C@H](Cc1ccccc1)NC(=O)[C@@H](NC(=O)CNC(=O)[C@H](CCC(=O)O)NC(=O)C(C)(C)NC(=O)[C@@H](N)Cc1ccc(O)cc1)[C@@H](C)O)[C@@H](C)O)[C@@H](C)CC)C(=O)N[C@@H](CCC(=O)O)C(=O)N[C@@H](CO)C(=O)N[C@@H](CCCCN)C(=O)N[C@@H](C)C(=O)N[C@@H](C)C(=O)NC(C)(C)C(=O)N[C@@H](CCC(=O)O)C(=O)N[C@@H](Cc1ccccc1)C(=O)N[C@H](C(=O)N[C@@H](CCC(=O)O)C(=O)N[C@@H](Cc1c[nH]c2ccccc12)C(=O)N[C@@H](CC(C)C)C(=O)N[C@@H](CCCCN)C(=O)N[C@@H](C)C(=O)NCC(=O)NCC(=O)N1CCC[C@H]1C(=O)N[C@@H](CO)C(=O)N[C@@H](CO)C(=O)NCC(=O)N[C@@H](C)C(=O)N1CCC[C@H]1C(=O)N1CCC[C@H]1C(=O)N1CCC[C@H]1C(=O)N[C@@H](CO)C(N)=O)[C@@H](C)CC)C(=O)O
For B1, the “EC50 hGLP-1 R” value [1] was 7.2 pM, the “EC50 hGIP R” value [2] was 13 pM and the “EC50 hGLUC R” value [3] was 15000 pM.

B2: exendin-4 peptide analogue SEQ ID NO: 25 (peptide)
peptide: Y[Aib]QGTFTSDLSIQK(Palmitoyl)EKRAV[Aib]LFIEWLKAGGPSSGAPPPS-NH2
modifications: N-terminus assumed
SMILES: CCCCCCCCCCCCCCCC(=O)NCCCC[C@H](NC(=O)[C@H](CCC(N)=O)NC(=O)[C@@H](NC(=O)[C@H](CO)NC(=O)[C@H](CC(C)C)NC(=O)[C@H](CC(=O)O)NC(=O)[C@H](CO)NC(=O)[C@@H](NC(=O)[C@H](Cc1ccccc1)NC(=O)[C@@H](NC(=O)CNC(=O)[C@H](CCC(N)=O)NC(=O)C(C)(C)NC(=O)[C@@H](N)Cc1ccc(O)cc1)[C@@H](C)O)[C@@H](C)O)[C@@H](C)CC)C(=O)N[C@@H](CCC(=O)O)C(=O)N[C@@H](CCCCN)C(=O)N[C@@H](CCCNC(=N)N)C(=O)N[C@@H](C)C(=O)N[C@H](C(=O)NC(C)(C)C(=O)N[C@@H](CC(C)C)C(=O)N[C@@H](Cc1ccccc1)C(=O)N[C@H](C(=O)N[C@@H](CCC(=O)O)C(=O)N[C@@H](Cc1c[nH]c2ccccc12)C(=O)N[C@@H](CC(C)C)C(=O)N[C@@H](CCCCN)C(=O)N[C@@H](C)C(=O)NCC(=O)NCC(=O)N1CCC[C@H]1C(=O)N[C@@H](CO)C(=O)N[C@@H](CO)C(=O)NCC(=O)N[C@@H](C)C(=O)N1CCC[C@H]1C(=O)N1CCC[C@H]1C(=O)N1CCC[C@H]1C(=O)N[C@@H](CO)C(N)=O)[C@@H](C)CC)C(C)C
B2 was tested, and the “EC50 hGLP-1 R” value [1] was 37 pM, the “EC50 hGIP R” value [2] was 176 pM and the “EC50 hGLUC R” value [3] was 2030 pM.

B3: exendin-4 peptide analogue SEQ ID NO: 27 (peptide)
peptide: Y[Aib]QGTFTSDLSIQK([γGlu-Palmitoyl])DKRAA[Aib]LFIEWLKAGGPSSGAPPPS-NH2
modifications: N-terminus assumed
SMILES: CCCCCCCCCCCCCCCC(=O)N[C@@H](CCC(=O)NCCCC[C@H](NC(=O)[C@H](CCC(N)=O)NC(=O)[C@@H](NC(=O)[C@H](CO)NC(=O)[C@H](CC(C)C)NC(=O)[C@H](CC(=O)O)NC(=O)[C@H](CO)NC(=O)[C@@H](NC(=O)[C@H](Cc1ccccc1)NC(=O)[C@@H](NC(=O)CNC(=O)[C@H](CCC(N)=O)NC(=O)C(C)(C)NC(=O)[C@@H](N)Cc1ccc(O)cc1)[C@@H](C)O)[C@@H](C)O)[C@@H](C)CC)C(=O)N[C@@H](CC(=O)O)C(=O)N[C@@H](CCCCN)C(=O)N[C@@H](CCCNC(=N)N)C(=O)N[C@@H](C)C(=O)N[C@@H](C)C(=O)NC(C)(C)C(=O)N[C@@H](CC(C)C)C(=O)N[C@@H](Cc1ccccc1)C(=O)N[C@H](C(=O)N[C@@H](CCC(=O)O)C(=O)N[C@@H](Cc1c[nH]c2ccccc12)C(=O)N[C@@H](CC(C)C)C(=O)N[C@@H](CCCCN)C(=O)N[C@@H](C)C(=O)NCC(=O)NCC(=O)N1CCC[C@H]1C(=O)N[C@@H](CO)C(=O)N[C@@H](CO)C(=O)NCC(=O)N[C@@H](C)C(=O)N1CCC[C@H]1C(=O)N1CCC[C@H]1C(=O)N1CCC[C@H]1C(=O)N[C@@H](CO)C(N)=O)[C@@H](C)CC)C(=O)O
With B3 the “EC50 hGLP-1 R” value [1] was 14.7 pM, the “EC50 hGIP R” value [2] was 82.6 pM and the “EC50 hGLUC R” value [3] was 38.9 pM.

B4: exendin-4 peptide analogue SEQ ID NO: 24 (peptide)
peptide: Y[Aib]QGTFTSDLSIQK([γGlu-Palmitoyl])EKRAV[Aib]LFIEWLKAGGPSSGAPPPS-NH2
modifications: N-terminus assumed
SMILES: CCCCCCCCCCCCCCCC(=O)N[C@@H](CCC(=O)NCCCC[C@H](NC(=O)[C@H](CCC(N)=O)NC(=O)[C@@H](NC(=O)[C@H](CO)NC(=O)[C@H](CC(C)C)NC(=O)[C@H](CC(=O)O)NC(=O)[C@H](CO)NC(=O)[C@@H](NC(=O)[C@H](Cc1ccccc1)NC(=O)[C@@H](NC(=O)CNC(=O)[C@H](CCC(N)=O)NC(=O)C(C)(C)NC(=O)[C@@H](N)Cc1ccc(O)cc1)[C@@H](C)O)[C@@H](C)O)[C@@H](C)CC)C(=O)N[C@@H](CCC(=O)O)C(=O)N[C@@H](CCCCN)C(=O)N[C@@H](CCCNC(=N)N)C(=O)N[C@@H](C)C(=O)N[C@H](C(=O)NC(C)(C)C(=O)N[C@@H](CC(C)C)C(=O)N[C@@H](Cc1ccccc1)C(=O)N[C@H](C(=O)N[C@@H](CCC(=O)O)C(=O)N[C@@H](Cc1c[nH]c2ccccc12)C(=O)N[C@@H](CC(C)C)C(=O)N[C@@H](CCCCN)C(=O)N[C@@H](C)C(=O)NCC(=O)NCC(=O)N1CCC[C@H]1C(=O)N[C@@H](CO)C(=O)N[C@@H](CO)C(=O)NCC(=O)N[C@@H](C)C(=O)N1CCC[C@H]1C(=O)N1CCC[C@H]1C(=O)N1CCC[C@H]1C(=O)N[C@@H](CO)C(N)=O)[C@@H](C)CC)C(C)C)C(=O)O
For B4, the “EC50 hGLP-1 R” value [1] was 19.2 pM, the “EC50 hGIP R” value [2] was 10.4 pM and the “EC50 hGLUC R” value [3] was 284 pM.

B5: exendin-4 peptide analogue SEQ ID NO: 26 (peptide)
peptide: Y[Aib]QGTFTSDLSIQK([γGlu-Palmitoyl])EKRAV[Aib]EFIEWLKAGGPSSGAPPPS-NH2
modifications: N-terminus assumed
SMILES: CCCCCCCCCCCCCCCC(=O)N[C@@H](CCC(=O)NCCCC[C@H](NC(=O)[C@H](CCC(N)=O)NC(=O)[C@@H](NC(=O)[C@H](CO)NC(=O)[C@H](CC(C)C)NC(=O)[C@H](CC(=O)O)NC(=O)[C@H](CO)NC(=O)[C@@H](NC(=O)[C@H](Cc1ccccc1)NC(=O)[C@@H](NC(=O)CNC(=O)[C@H](CCC(N)=O)NC(=O)C(C)(C)NC(=O)[C@@H](N)Cc1ccc(O)cc1)[C@@H](C)O)[C@@H](C)O)[C@@H](C)CC)C(=O)N[C@@H](CCC(=O)O)C(=O)N[C@@H](CCCCN)C(=O)N[C@@H](CCCNC(=N)N)C(=O)N[C@@H](C)C(=O)N[C@H](C(=O)NC(C)(C)C(=O)N[C@@H](CCC(=O)O)C(=O)N[C@@H](Cc1ccccc1)C(=O)N[C@H](C(=O)N[C@@H](CCC(=O)O)C(=O)N[C@@H](Cc1c[nH]c2ccccc12)C(=O)N[C@@H](CC(C)C)C(=O)N[C@@H](CCCCN)C(=O)N[C@@H](C)C(=O)NCC(=O)NCC(=O)N1CCC[C@H]1C(=O)N[C@@H](CO)C(=O)N[C@@H](CO)C(=O)NCC(=O)N[C@@H](C)C(=O)N1CCC[C@H]1C(=O)N1CCC[C@H]1C(=O)N1CCC[C@H]1C(=O)N[C@@H](CO)C(N)=O)[C@@H](C)CC)C(C)C)C(=O)O
B5 was tested, and the “EC50 hGLP-1 R” value [1] was 17.6 pM, the “EC50 hGIP R” value [2] was 5.3 pM and the “EC50 hGLUC R” value [3] was 300 pM.

B6: exendin-4 peptide analogue SEQ ID NO: 28 (peptide)
peptide: Y[Aib]HGTFTSDLSKQK([γGlu-Palmitoyl])EKRAA[Aib]EFIEWLKNTGPSSGAPPPS-NH2
modifications: N-terminus assumed
SMILES: CCCCCCCCCCCCCCCC(=O)N[C@@H](CCC(=O)NCCCC[C@H](NC(=O)[C@H](CCC(N)=O)NC(=O)[C@H](CCCCN)NC(=O)[C@H](CO)NC(=O)[C@H](CC(C)C)NC(=O)[C@H](CC(=O)O)NC(=O)[C@H](CO)NC(=O)[C@@H](NC(=O)[C@H](Cc1ccccc1)NC(=O)[C@@H](NC(=O)CNC(=O)[C@H](Cc1c[nH]cn1)NC(=O)C(C)(C)NC(=O)[C@@H](N)Cc1ccc(O)cc1)[C@@H](C)O)[C@@H](C)O)C(=O)N[C@@H](CCC(=O)O)C(=O)N[C@@H](CCCCN)C(=O)N[C@@H](CCCNC(=N)N)C(=O)N[C@@H](C)C(=O)N[C@@H](C)C(=O)NC(C)(C)C(=O)N[C@@H](CCC(=O)O)C(=O)N[C@@H](Cc1ccccc1)C(=O)N[C@H](C(=O)N[C@@H](CCC(=O)O)C(=O)N[C@@H](Cc1c[nH]c2ccccc12)C(=O)N[C@@H](CC(C)C)C(=O)N[C@@H](CCCCN)C(=O)N[C@@H](CC(N)=O)C(=O)N[C@H](C(=O)NCC(=O)N1CCC[C@H]1C(=O)N[C@@H](CO)C(=O)N[C@@H](CO)C(=O)NCC(=O)N[C@@H](C)C(=O)N1CCC[C@H]1C(=O)N1CCC[C@H]1C(=O)N1CCC[C@H]1C(=O)N[C@@H](CO)C(N)=O)[C@@H](C)O)[C@@H](C)CC)C(=O)O
In the case of B6, the “EC50 hGLP-1 R” value [1] is reported as 58.3 pM, the “EC50 hGIP R” value [2] is reported as 36.8 pM and the “EC50 hGLUC R” value [3] is reported as 4.8 pM.
